Columns and labels:
[1] = target: RAGE ligand (not named in the glycoform binding study); assay: binding assay of RP-HPLC glycoform fractions; method and ligand not stated; data not shown
[2] = target: RAGE ligand (not named in the glycoform binding study); assay: binding assay of RP-HPLC glycoform fractions; reference is the 3-glycan fraction; method and ligand not stated; data not shown
[3] = target: RAGE ligand (not named in the glycoform binding study); assay: binding assay of RP-HPLC glycoform fractions; method and ligand not stated; reference sample; data not shown

| Substance | relative binding (percent of control RAGE fusion protein) [1] [%] | fold increase in binding against the 3 glycan fraction [2] [fold] | relative binding [3] [%] |
| --- | --- | --- | --- |
| 0-glycan RAGE fusion protein (RP-HPLC fraction of wild-type RAGE fusion protein) (Fc fusion) | 529 | 10 |  |
| control RAGE fusion protein (mixture of 67% 3-glycan and 22% 2 glycan RAGE fusion protein) (Fc fusion) |  |  | 100 |
